Source: a protein production outcome set (Wang et al. 2014)

Assay: label from the status in PepcDB records

In the case of “MEGSTGFDGDATTFFAPDAVFGDRVRRFQEFLDTFTSYRDSVRSIQVYNSNNAANYNDDQDDADERDLLGDDDGDDLEKEKKAASSTSLNILPHRIIISLDDLREFDRSFWSGILVEPAYFIPPAEKALTDLADSMDDVPHPNASAVSSRHPWKLSFKGSFGAHALSPRTLTAQHLNKLVSVEGIVTKTSLVRPKLIRSVHYAAKTGRFHYRDYTDATTTLTTRIPTPAIYPTEDTEGNKLTTEYGYSTFIDHQRITVQEMPEMAPAGQLPRSIDVILDDDLVDKTKPGDRVNVVGVFKSLGAGGMNQSNSNTLIGFKTLILGNTVYPLHARSTGVAARQMLTDFDIRNINKLSKKKDIFDILSQSLAPSIYGHDHIKKAILLMLMGGVEKNLENGSHLRGDINILMVGDPSTAKSQLLRFVLNTASLAIATTGRGSSGVGLTAAVTTDRETGERRLEAGAMVLADRGVVCIDEFDKMTDVDRVAIHEVMEQQTVTIAKAGIHTTLNARCSVIAAANPVFGQYDVNRDPHQNIALPDSLLSRFDLLFVVTDDINEIRDRSISEHVLRTHRYLPPGYLEGEPVRERLNLSLAVGEDADINPEEHSNSGAGVENEGEDDEDHVFEKFNPLLQAGAKLAKNKGNYNGTEIPKLVTIPFLRKYVQYAKERVIPQLTQEAINVIVKNYTDLRNDDNTKKSPITARTLETLIRLATAHAKVRLSKTVNKVDAKVAANLLRFALLGEDIGNDIDEEESEYEEALSKRSPQKSPKKRQRVRQPASNSGSPIKSTPRRSTASSVNATPSSARRILRFQDDEQNAGEDDNDIMSPLPADEEAELQRRLQLGLRVSPRRREHLHAPEEGSSGPLTEVGTPRLPNVSSAGQDDEQQQSVISFDNVEPGTISTGRLSLISGIIARLMQTEIFEEESYPVASLFERINEELPEEEKFSAQEYLAGLKIMSDRNNLMVADDKVWRV”, the protein production is reported as “failed”.

With “MNVTPWEVEGVIDYSKLIEEFGMQPFSEVLPEIDNPHILMRRGAIFGHRDYWRIIEAMQKKEPWAVMSGFMPSGLPHFGHKMTMDEIVWHQSAGGKAFVAIADMEAHSVRGLSWEKTRELGMLYIKSIIALGLREDAVIYFQSKSSHVKDLAFELSAEVNFSELRAIYGFNSDTSLAKMFVTAIQAADILHPQLSDFGGPKPVVVPVGADQDPHMRLTRDLAARISIFSFEPVEGGVRVRSRKGAEYLSSLRDLEFDKKIYEEHMDIFGEAEEIERAVRKIEVEIGGFAFIPPSSTYHRFTTGLTGGKMSSSKPESYISLLDPPEEGAKKVMKAFTGGRATAEEQRRLGGEPDRCVVFELYSFHLIDSDEELNQIEAECREGRLLCGKCKKMAAELVKSFLKEHQEKMEAVDLSNYTIIG” the protein production was “failed”.

For “KIRSYTSIWSVEKVLYSINDFRLPFPITFTQMTWFVVSLFAVMILGNVPPLSMIEGAFLKYFGIPVAFTWFMSTKTFDGKKPYGFLKSVIAYALRPKLTYAGKKVTLGRNQPQEAITAVRSEFY”, the protein production was “failed”.

With “MTSLTQRSSGLVQRRTEASRNAADKERAAGGGAGSSEDDAQSRRDEQDDDDKGDSKETRLTLMEEVLLLGLKDREGYTSFWNDCISSGLRGCMLIELALRGRLQLEACGMRRKSLLTRKVICKSDAPTGDVLLDEALKHVKETQPPETVQNWIELLSGETWNPLKLHYQLRNVRERLAKNLVEKGVLTTEKQNFLLFDMTTHPLTNNNIKQRLIKKVQEAVLDKWVNDPHRMDRRLLALIYLAHASDVLENAFAPLLDEQYDLATKRVRQLLDLDPEVECLKANTNEVLWAVVAAFTK” the protein production was “failed”.

With “MKPRDTRVKPGSRVSLADWHTDGDAFVGKDKAASMARLDDDRVRLEELQELLYAEGKHRLLVVLQAMDTAGKDSTIRHVFRGVDPLGVRVANFGVPSTHELRHDYLWRVHPHVPASGEIAIFNRSHYEDVLVPRVNGAIGHAECERRYRQINDFERMLSETGTTIRKFYLHISKDEQKKRLEARRDTPKKRWKFQPGDLAVRAQWDDYRAAYDALLSATSTRHAPWHVVPADDKLARNLIVSALLIEALEGLDMRYPEPVAGVAGTPII” the protein production was “not failed”.

In the case of “MDRNYSNWQSLTSLALFLLPFLFIGWLFDLFWPVTALALLGLVCWHYYYQQKLIKWLWQSRTLMPPSAPGSWSYIYDGIYRSQRRSQKRRKALARLLRRFREAAEALPDAAIVFRADGALLWSNKLAQFYFGLRWPDDAGQRLSNLIRHPEFYAYLNAGNFDEELTIPSPIRESLDIEIRIMPYSEDQFLLVARDVTQVKRLENLRREFVANVSHELKTPLTVLQGYLEMMDEPQQTPPAMLKKAVENMNAQSTRMANLVDQLLTLSRMETPSNDVFDHEVDMPALLEQLESEAKRLNEVKQHKIEFDVAPVRIYGKENLLRSAMQNLITNAINYTPDGGEIKVTWKTVAGGVEFSVKDNGKGIAAEHLPRLTERFYRVEDDRNSASGGTGLGLSIVKHAIEHHNSQLDINSSLEKGSRFSFRIPSGLLVS”, the protein production is reported as “failed”.

For “MTVWRSWRLLGVSGDSKPTDGPVSRFLNRRIASAIASAIIALNLPLTPNMLSLISFLTAAAAALFIAGGQLLVGGLLVQLSSVLDGVDGIVARRLRAASKAGGFLDTMLDRYADTVIYLALAYAAVATHGLETWAVLTAVLAVSGDIMVSYLHTRGERDAGVHPSLVGPLDSLASRDVRLLIVAVITAAGRPLEAMAAVALLSHAYVAVKSIYLFSLLKSKGV”, the protein production was “failed”.

In the case of “MSLKFQKLSGLVLCFLIALPAWFLGQSFPLVGAPVFAIFLGMLLAIFYKNREHTEAGIAFTSKYILQFAVVLLGFGLNLSQVLTVGKTSLPIIVATISSSLLLAFLLQKWFKLDVNTATLVGVGSSICGGSAIAATAPVIQADGDEIAQSISVIFLFNILAALIFPTLGDMIGLSNHGFALFAGTAVNDTSSVTATAAAWDGLHHSNTLDGATIVKLTRTLAIIPITLGLSFYQVYKTKKVGKNQQHTVKLKKVFPMFILYFILASIITTILTALGVNPIFFTPLKTLSKFCIVMAMGAIGLNTNIVKLVKTGGQAIVLGASCWIVITLVSLGMQHLLGIW”, the protein production is reported as “failed”.

In the case of “MSRLEGKIAIVTGASSGIGRAAAALCTRGGKGRRYRPQRECTCGAYTRSPEGAVRRQRLPATWATKPCEALVELAVRRFGGLDTAFNNAGARCDGRDLVARRRLARDARYQSDAPSWRRNIRFRQLRHWAAVRSPTSSFVGHTAGFAGVAPYAASKAGDRTGAGAGGRTRRARHSRERAAAAAPTRLPISRTCRERRPRRAVSEGLHALKRIARPEEIAEAALYLAGRCLRDRRCAAGRRRRFGDEGV”, the protein production is reported as “not failed”.

For “MRKCLLSVAMIVKDEEHNIRRALESIKDVVDEIVVVDTGSTDRTPEIVREYTDKLYFHEWKNDFSEARNFSLKFPTCEWVLILDADEEASEEFRQNIRSFLESLPEDVNTVYLPTVSYLDWDFKRTEIASTPRIFRNGTVYYKNIVHNQAVYKPKVVHAPFVIYHYGYIWTRKLKKNKYERTATLIREQLKTVKNPIEKIYYLIQLYKTEKTGGRKHEENRIAWETLQEIMKVGKIPPIGLEFLYIFGMELILNGFLEKGEELIDTAIRVFPENPDPYFAKLAIYERRKDWENLYQWGKKFLDVLNKALSQAEKYEFTITTIKEIGTAHLLMCHACIKLKKWNEAYEHLLKAIENNIDESKFTLTLQIVSEIDESENFQKVLKLVEKIAEHSENLFFDEIVEKIAEFEIEASEELLNKLPVSRKISKFILKRLVEKKDFLFEYLTGGDINSFVEKTGIPGLLFIFDLLKNRETEGRLIRILSKIEGDEKPNGIVQALIGDLYLKLGNFSEAISRYRKALELAPEIGNFIKPVIEDLKTRLDPDIEGVYEELYRYFSGYREFPFNILEFTKEDAEKLYLISDHPLAIYTSAVAVFPKSKEKARALLERIKDVSKLSFYYYRLAKTWEEENPSKAFELHIKAVEENENLGDIALGRYKYDGLYPNQTFPFMKKEDEIVWAGNITEKFSGLGVIHPVRAWKRKENLYYALPHPTDEALKLYKEREKEILKEPPFKVKEEHMIGVLLESDIRDLRIKGEASGLESILKDLEIELKEDSKNLLVVSGVEETLDLSKIAEDAERVLLFFFVPDLRDRNNSVWYYPAFRVLRTTHQMKKTLEDLRFSVVKVKALDKNLRFIEALRRL”, the protein production was “failed”.

In the case of “MQTACQAVQHQRGRRQYNKLRNLLKDARHDCILFANEFQQCCYLPRERGESMEKWQTRSIYNAAVWYYHHCQDRMPIVMVTEDEEAIQQYGSETEGVFVITFKNYLDNFWPDLKAAHELCDSILQSRRERENESQESHGKEYPEHLPLEVLEAGIKSGRYIQGILNVNKHRAQIEAFVRLQGASSKDSDLVSDILIHGMKARNRSIHGDVVVVELLPKNEWKGRTVALCENDCDDKASGESPSEPMPTGRVVGILQKNWRDYVVTFPSKEEVQSQGKNAQKILVTPWDYRIPKIRISTQQAETLQDFRVVVRIDSWESTSVYPNGHFVRVLGRIGDLEGEIATILVENSISVIPFSEAQMCEMPVNTPESPWKVSPEEEQKRKDLRKSHLVFSIDPKGCEDVDDTLSVRTLNNGNLELGVHIADVTHFVAPNSYIDIEARTRATTYYLADRRYDMLPSVLSADLCSLLGGVDRYAVSIMWELDKASYEIKKVWYGRTIIRSAYKLFYEAAQELLDGNLSVVDDIPEFKDLDEKSRQAKLEELVWAIGKLTDIARHVRAKRDGCGALELEGVEVCVQLDDKKNIHDLIPKQPLEVHETVAECMILANHWVAKKIWESFPHQALLRQHPPPHQEFFSELRECAKAKGFFIDTRSNKTLADSLDNANDPHDPIVNRLLRSMATQAMSNALYFSTGSCAEEEFHHYGLALDKYTHFTSPIRRYSDIVVHRLLMAAISKDKKMEIKGNLFSNKDLEELCRHINNRNQAAQHSQKQSTELFQCMYFKDKDPATEERCISDGVIYSIRTNGVLLFIPRFGIKGAAYLKNKDGLVISCGPDSCSEWKPGSLQRFQNKITSTTTDGESVTFHLFDHVTVRISIQASRCHSDTIRLEIISNKPYKIPNTELIHQSSPLLKSELVKEVTKSVEEAQLAQEVKVNIIQEEYQEYRQTKGRSLYTLLEEIRDLALLDVSNNYGI”, the protein production is reported as “failed”.

In the case of “MRKHSDCMNFCAVDATKGICRLSKQMINLDDAACPEIKVMPKCKNCKNFVEANDEGIGKCVGLEKEDWVYSTLNAITCEGHVFNE”, the protein production is reported as “failed”.

In the case of “MVKKFKRVLVANRGEIAIRIFRACHELGIRTVAIYSEEDKLALFRTKADESYLIGQNKGPVDAYLNIDEIINLALKKGVDAIHPGYGFLSENSEFSRRCTEAGIEFIGPTGDMMDKLGDKINSKLAAKAAGVKTIPGVEKPIETEQQAIEFARTCGYPVMVKAAAGGGGRGMRIVEKEEDLIAACRSAKSEAKKAFGIEDIFIEKYLEGPKHIEVQVLGDKYGNIVHLYERDCSVQRRHQKVIELTPAVSMSEEKRLEICEDALKIARSIGYRSAGTLEFLLDKHGNHYFIEMNPRVQVEHTITEMVTGIDIVQSQILIAEGYKLNSPEVGINSQEDIHVNGYAIQCRITTEDPSNSFAPDTGKIDVYRTGSGFGIRLDGGNGFTGAVISPYYDSLLVKSTSWSRTFEDAIRKAIRAIKETYISGVKTNIDFLINVLNHETFRKGLCDTNFIANNPELFEITPRIDTELRVLKFIGEKVVNETHGHKIEVDVPSVPKYEIKEPLRGTKQILDEKGPKGLVEWIKDQDKLLLTDTTMRDAHQSLMATRLRTVDMVKIAKAESVLAKDLFSMEMWGGATFDTAYRFLKESPWERLERLRKRVPNVLFQMLLRGANAVGYKNYPDNVIREFIKQSSKSGIDVFRIFDSLNWVKGMEVAIDEVLNQGKVAEACMCYTGDILDTNRDKYTLNYYVNLAKEIEKSGAHILGIKDMSALLKPYAALKLIRALKNEISIPIHLHTHDTTGNGVATVLMAAHAGVDIADTAFNSMSGLTSQPALNSVVAALKNTDRDTKMDIGDLQKISDYWSTVRPVYSKFESGLKAVSAEIYKYEIPGGQYSNLKPQVESFGLGHRFEQVKEMYREVNIMLGDIVKVTPSSKMVGDLAIFMVQNELTSENILEKAKDMPFPDSVVSYFKGMMGQPKGGFPKELQKIVLKDEEAITCRPGELLPDEDFDKIRVRLKKENKIEPTDKDVISYALYPDVFEEYLKYKNEYGDLSRMGSDVFFHGLAEGEISELEIAEGKTLVVQLLHIGKLDKQGNRTLVFEVNGNRREIKIKDKVSSTKSEIVEEIVIADSSNKKEIGASIPGNVVKVFVKPGDKVKKGDSLMVIEAMKMETNVSVSEDGTVGGIFVKEGDQVQSGQLLVKLD”, the protein production is reported as “failed”.
